Positions count from the first letter of the chain named. Numbers in names are those of the source.
B1: TM2: wild type tamavidin 2, biotin-binding protein from Pleurotus cornucopiae, amino acid sequence SEQ ID NO: 2 (protein, listed as Pleurotus cornucopiae)
chain: MSDVQSSLTGTWYNELNSKMELTANKDGTLTGKYLSKVGDVYVPYPLSGRYNLQPPAGQGVALGWAVSWENSKIHSATTWSGQFFSESSPVILTQWLLSSSTARGDVWESTLVGNDSFTKTAPTEQQIAHAQLHCRAPRLK
B2: TM2 D40NR104EK141E: TM2 mutant having mutation of D40N and R104EK141E; SEQ ID NO: 24 (protein)
chain: B1 chain with D40N, R104E, K141E
modifications: Synthetic TM2 D40NR104EK141E

How the values were obtained:
human serum protein [1] = test: Non-specific adsorption of low-pI TM2 to human serum protein-immobilized magnetic beads; assay type: binding; conditions: wild type TM2 = 100
Protocol: In this embodiment, non-specific binding to human serum was investigated as non-specific adsorption of low-pI TM2 to serum protein-immobilized magnetic beads. Specifically, in order to investigate the non-specific binding of low-pI TM2, the amount of low-pI TM2 adsorbed to magnetic beads to which human serum protein was covalently bonded was measured. TM2 K26A, TM2 K73Q, TM2 R104E, TM2 K141E, and TM2 R104EK141E, which were highly expressed in Escherichia coli, were used as the low-pI TM2 to be investigated.
Human serum protein and magnetic beads were bound to each other as follows. Magnetic beads having surfaces coated with carboxyl groups (Dynabeads M-270 Carboxylic Acid, Dynal, 210 μL) were washed with 0.01 N sodium hydroxide (210 μL) for 10 minutes and then with ultrapure water (210 μL) for 10 minutes three times. To the washed magnetic beads, 1-ethyl-3-(3-dimethylaminopropyl)carbodiimide hydrochloride (EDC, PIERCE) dissolved in cooled ultrapure water was added into a final concentration of 0.2 M, and the mixture was shaken at room temperature for 30 minutes. Then, the magnetic beads were washed with cooled ultrapure water (210 μL) and then with 50 mM MES buffer (pH 5.0, 210 μL).
To the magnetic beads, 1 mg/mL human serum protein (CHEMICON, 210 μL) dialyzed with 50 mM MES buffer (pH 5.0) was added. The mixture was shaken at room temperature for 30 minutes to covalently bind the human serum protein to the magnetic beads. The magnetic beads were collected with a magnet to remove the supernatant. The unreacted active groups on the beads were eliminated with 50 mM tris buffer (pH 7.0, 210 μL), and then the magnetic beads were blocked with a PBS buffer (420 μL) containing 0.5% BSA and 0.1% Tween 20. The magnetic beads were suspended in a PBS buffer (210 μL) to obtain human serum protein-immobilized magnetic beads.
The magnetic beads (7 μL) and 0.56 μg/mL of each low-pI TM2 (100 μL) were mixed for reaction at room temperature for 1 hour. The magnetic beads were collected with a magnetic, and the supernatant was removed. After washing with 20 mM potassium phosphate buffer (500 μL) containing 500 mM sodium chloride, the magnetic beads were mixed with 20 μL of 2×SDS sample buffer (250 mM Tris-HCl, pH 6.8, 20% 2-mercaptoethanol, 20% SDS, 20% glycerol), followed by heating at 95° C. for 20 minutes to dissociate the low-pI TM2 from the magnetic beads.
This sample was subjected to SDS-PAGE and then western blotting analysis to determine the amount of the low-pI TM2. Anti-tamavidin 2 rabbit antibody and alkaline phosphatase-labeled anti-rabbit IgG goat antibody were used as the primary antibody and the secondary antibody, respectively. The bands were detected with Alkaline Phosphatase Substrate Kit II <VECTOR Black> (VECTRO) and were quantified with Las-3000 (FUJIFILM).

[2] = Biotin-binding test (Biacore 3000, biotin-LC-BSA immobilized)
Protocol: High-purity BSA (Sigma, 2 mg) and NHS-LC-biotin (Pierce, 1 mg) were dissolved in 50 mM sodium borate (pH 8.0, 1 mL) and were incubated at 4° C. for 2 hours. The solution was put into a dialysis tube (MWCO 6-8,000) and was dialyzed with 50 mM sodium carbonate (pH 6.7) at 4° C. overnight. The resulting biotin-LC-BSA conjugate (MW: 67 kDa, 30 μM) was used as a ligand for a Biacore (registered trademark) biosensor.
Biotin-LC-BSA and BSA serving as a negative control were immobilized on CM5 sensor chips by amine coupling method. The amount for immobilization was adjusted to about 200 RU. The chips to which BSA was immobilized were disposed in flow cells 1 and 3, while the chips to which biotin-LC-BSA was immobilized were disposed in flow cells 2 and 4.
Accordingly, seven step measurement (3.125, 6.25, […], 25, 50, 100, and 200 nM) was conducted from the lowest concentration, without recycling steps. The data of BSA as reference was deducted from the data of BSA-LC-biotin. The measurement was performed at 25° C. The resulting sensorgrams were subjected to reaction kinetics analysis using analysis software BIAevaluation ver. 4.1 with a 1:1 binding model to calculate the binding rate constant (ka) and the dissociation rate constant (kd). The dissociation constant (KD) was determined from kd/ka. In the case where no recycling step is employed, the Rmax (maximum amount of binding analyte) decreases at each measurement. Accordingly, in the analysis, the Rmax was calculated by conducting local fitting for each concentration, and only the data of analyte concentrations that were approximated to the 1:1 binding model was employed.
TM2 and HALU TM2 used as analytes were prepared by purification with 2-iminobiotin agarose in accordance with a common method and dialysis with 20MM KPi (pH 7) overnight. The analytes were each adjusted to about 50 μg/mL in 10 mM acetate buffer (pH 5, Biacore).
The immobilization of the ligand and measurement and analysis of specific interaction with the analytes were conducted as in paragraph 2-7-2).

human serum protein [3] = test: Non-specific adsorption of serum protein to HALU TM2-immobilized magnetic beads; assay type: binding; conditions: human serum diluted 800 times, anti-human IgG detection
Protocol: In this Example, non-specific adsorption of serum protein to HALU TM2-immobilized magnetic beads was investigated.
TM2 D40NR104E and TM2 D40NR104EK141E were bonded covalently to magnetic beads (Dynabeads M-270 Carboxylic Acid, Dynal) by the process described in paragraph 1-9) of Example 1, and the amount of human serum protein adsorbed to the beads was measured. The amount of each HALU TM2 immobilized to the magnetic beads was adjusted to 10 μg/100 μL beads. Human serum (CHEMICON) was diluted 800 times with a PBS buffer, and the HALU TM2-immobilized magnetic beads (50 μL) to which a certain amount of protein was immobilized were added to the diluted human serum, followed by mixing by turning the tube containing the beads upside down at room temperature for 15 minutes. The magnetic beads were washed with a PBS buffer containing 0.1% Tween 20 (PBST, 500 μL) four times and were then subjected to antigen-antibody reaction at room temperature for 15 minutes with HRP-labeled anti-human IgG mouse antibody (100 μL) diluted 5000 times with PBST containing 0.5% BSA. Subsequently, the beads were washed with PBST (500 μL) five times, followed by color development with 1-Step Ultra TMB-ELISA (100 μL). After termination of the color development with 2M sulfuric acid (100 μL), the magnetic beads were collected with a magnet. The absorbance at 450 nm of the supernatant was measured with an Infinite 200 microplate reader.

Molecule | Non-specific binding of serum protein (%) (human serum protein [1]) | dissociation from biotin-LC-BSA ([2]; dissociation monitored for 60 minutes) | Non-specific binding to serum protein (A450) (human serum protein [3]) | ka ([2]; Biotin-BSA (22.4 Å)) | kd ([2]; Biotin-BSA (22.4 Å), values in parentheses) | Non-specific binding to serum protein (A450) (human serum protein [3]; listed as D40NR104EK141E)
B1 | 100 | not dissociated | 0.67 | – | – | –
B2 | – | – | low | 1.5 × 10^6 | (1.4 × 10^−8) | 0.45

From patent publication US8304236B2, “Modified biotin-binding protein” (Japan Tobacco Inc., priority 2008, dated 2012)
